Assays:
[1] = system: SLPI present in human saliva
Sequence of SLPI present in human saliva (chain, as listed by the source): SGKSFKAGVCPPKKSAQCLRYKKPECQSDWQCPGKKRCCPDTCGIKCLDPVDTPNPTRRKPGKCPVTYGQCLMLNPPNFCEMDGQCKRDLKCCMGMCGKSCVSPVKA

Sequence of tryptase (chain, as listed by the source): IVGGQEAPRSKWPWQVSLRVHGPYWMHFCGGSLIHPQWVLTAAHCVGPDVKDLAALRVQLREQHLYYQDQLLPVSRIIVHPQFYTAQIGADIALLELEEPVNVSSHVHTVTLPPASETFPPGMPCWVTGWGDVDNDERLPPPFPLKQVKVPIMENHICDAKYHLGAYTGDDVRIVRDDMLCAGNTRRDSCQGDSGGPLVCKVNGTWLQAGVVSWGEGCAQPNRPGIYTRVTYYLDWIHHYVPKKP

## tryptase
Recombinant human SLPI
  cleavage of rSLPI, LC/MS (1 ug rSLPI, 50 ng protease, 5 hours): did not result in the formation of the second peak
  cleavage of the reduced form of rSLPI: Reduction of the rSLPI samples in the presence of the proteases did result in cleavage of the SLPI protein
[1]
  cleavage of SLPI in human saliva, Western analysis: The larger SLPI cleavage product was not observed when the saliva samples were incubated with cathepsin G, tryptase and proteinase 3
